Measured values reported in PMC9414842.

Target: human large conductance voltage- and calcium-activated potassium channel (hBK) (human) (UniProt Q12791)
Assay: cryo-EM structure; random spherically constrained (RSC) single-particle cryo-EM of hBK reconstituted into POPC liposomes, without Ca2+ (20 mM HEPES pH 7.4, 150 mM KCl, 2 mM EDTA); map with C2 symmetry at 3.48 Å

Chain of human large conductance voltage- and calcium-activated potassium channel (hBK), Q12791 1-1236 (natural protein; other documents disagree on this pair) (Q12791 whole entry): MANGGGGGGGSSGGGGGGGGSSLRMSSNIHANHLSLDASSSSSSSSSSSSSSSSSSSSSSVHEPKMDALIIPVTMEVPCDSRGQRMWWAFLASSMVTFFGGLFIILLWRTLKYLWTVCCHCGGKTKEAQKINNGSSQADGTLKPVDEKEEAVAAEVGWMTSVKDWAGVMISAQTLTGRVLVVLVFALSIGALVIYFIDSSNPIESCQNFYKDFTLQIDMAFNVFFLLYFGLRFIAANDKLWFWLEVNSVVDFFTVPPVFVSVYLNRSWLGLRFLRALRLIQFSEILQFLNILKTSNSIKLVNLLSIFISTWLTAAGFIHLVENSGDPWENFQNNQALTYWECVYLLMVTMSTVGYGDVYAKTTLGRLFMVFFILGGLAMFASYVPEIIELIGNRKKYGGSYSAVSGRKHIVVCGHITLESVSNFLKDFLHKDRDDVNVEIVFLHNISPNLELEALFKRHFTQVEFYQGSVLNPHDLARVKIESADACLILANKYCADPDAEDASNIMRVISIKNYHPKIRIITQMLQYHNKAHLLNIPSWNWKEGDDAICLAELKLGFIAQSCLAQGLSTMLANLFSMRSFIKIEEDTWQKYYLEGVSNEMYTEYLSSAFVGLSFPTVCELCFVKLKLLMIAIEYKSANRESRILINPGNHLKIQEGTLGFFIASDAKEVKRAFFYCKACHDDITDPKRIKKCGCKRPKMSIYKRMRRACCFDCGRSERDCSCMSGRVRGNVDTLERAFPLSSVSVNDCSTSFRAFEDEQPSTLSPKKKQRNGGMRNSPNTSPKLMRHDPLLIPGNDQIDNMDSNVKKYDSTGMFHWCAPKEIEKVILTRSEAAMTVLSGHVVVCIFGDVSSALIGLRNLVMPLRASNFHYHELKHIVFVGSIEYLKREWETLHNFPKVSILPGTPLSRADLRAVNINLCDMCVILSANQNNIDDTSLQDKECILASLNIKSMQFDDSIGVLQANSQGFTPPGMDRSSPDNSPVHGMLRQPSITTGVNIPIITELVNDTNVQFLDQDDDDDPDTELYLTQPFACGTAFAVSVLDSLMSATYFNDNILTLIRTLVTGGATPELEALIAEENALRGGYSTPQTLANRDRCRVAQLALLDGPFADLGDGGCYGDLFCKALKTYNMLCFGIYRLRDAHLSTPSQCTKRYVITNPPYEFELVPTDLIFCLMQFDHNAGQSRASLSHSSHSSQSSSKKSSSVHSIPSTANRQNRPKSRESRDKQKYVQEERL

stoichiometry N: 4
Substance: human large conductance voltage- and calcium-activated potassium channel (hBK), Q12791 1-1236 (natural protein; other documents disagree on this pair)
